One data set concerns the target EPHB1 (UniProt P54762). The data set is described as follows: phosphorylation enrichment, bacterial display (enrichment ratio); higher = better substrate or ligand; peptides without Tyr show the background.
Another data set relates to AncSZ. The description is as above.
The subject of another data set is c-Src. The data set is described as above.
A further data set addresses EPHB2 (UniProt P29323). The data set is described as above.
In a further data set the target is Hck (UniProt P08631). Described as above.
A further data set has as its system Fer (mouse). Described as above.
The target in the next data set is MERTK (UniProt Q12866). Described as above.
A further data set has as its target FGFR1 (UniProt P11362). Described as above.
For another data set, the system named is c-Abl (mouse). The description is as above.
For another data set, the target named is Fes (UniProt P07332). The data set is described as above.
For another data set, the target named is FGFR3 (UniProt P22607). The data set is described as above.
For the next data set, the target named is Jak2 (UniProt O60674). Described as above.
The target in another data set is Fyn (UniProt P06241). The description is as above.
The next data set has as its target c-Src SH2. As to the kind of experiment: SH2 binding enrichment of the phosphorylated peptide, bacterial display (enrichment ratio); higher = better substrate or ligand; peptides without Tyr show the background.
A further data set has as its target SHP2-C SH2. The description is as above.
A further data set deals with Grb2 SH2 (UniProt P62993). The description is as above.
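Throughout, for SH2 binding enrichment of the phosphorylated peptide, bacterial display: peptide library displayed on the E. coli surface as eCPX fusions, selected cells deep-sequenced, score is each peptide's frequency after selection divided by its frequency in the input.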
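Throughout, for phosphorylation enrichment, bacterial display: 11-residue human phosphosite peptides and single-mutation variants displayed on the E. coli surface, counted by deep sequencing, each peptide's frequency after selection divided by its frequency in the unselected input library; frequency after pTyr selection over input frequency; kinase dosed for 20-30% of maximal phosphorylation in three min.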

Sequence of EPHB2 (P29323 whole entry, looked up): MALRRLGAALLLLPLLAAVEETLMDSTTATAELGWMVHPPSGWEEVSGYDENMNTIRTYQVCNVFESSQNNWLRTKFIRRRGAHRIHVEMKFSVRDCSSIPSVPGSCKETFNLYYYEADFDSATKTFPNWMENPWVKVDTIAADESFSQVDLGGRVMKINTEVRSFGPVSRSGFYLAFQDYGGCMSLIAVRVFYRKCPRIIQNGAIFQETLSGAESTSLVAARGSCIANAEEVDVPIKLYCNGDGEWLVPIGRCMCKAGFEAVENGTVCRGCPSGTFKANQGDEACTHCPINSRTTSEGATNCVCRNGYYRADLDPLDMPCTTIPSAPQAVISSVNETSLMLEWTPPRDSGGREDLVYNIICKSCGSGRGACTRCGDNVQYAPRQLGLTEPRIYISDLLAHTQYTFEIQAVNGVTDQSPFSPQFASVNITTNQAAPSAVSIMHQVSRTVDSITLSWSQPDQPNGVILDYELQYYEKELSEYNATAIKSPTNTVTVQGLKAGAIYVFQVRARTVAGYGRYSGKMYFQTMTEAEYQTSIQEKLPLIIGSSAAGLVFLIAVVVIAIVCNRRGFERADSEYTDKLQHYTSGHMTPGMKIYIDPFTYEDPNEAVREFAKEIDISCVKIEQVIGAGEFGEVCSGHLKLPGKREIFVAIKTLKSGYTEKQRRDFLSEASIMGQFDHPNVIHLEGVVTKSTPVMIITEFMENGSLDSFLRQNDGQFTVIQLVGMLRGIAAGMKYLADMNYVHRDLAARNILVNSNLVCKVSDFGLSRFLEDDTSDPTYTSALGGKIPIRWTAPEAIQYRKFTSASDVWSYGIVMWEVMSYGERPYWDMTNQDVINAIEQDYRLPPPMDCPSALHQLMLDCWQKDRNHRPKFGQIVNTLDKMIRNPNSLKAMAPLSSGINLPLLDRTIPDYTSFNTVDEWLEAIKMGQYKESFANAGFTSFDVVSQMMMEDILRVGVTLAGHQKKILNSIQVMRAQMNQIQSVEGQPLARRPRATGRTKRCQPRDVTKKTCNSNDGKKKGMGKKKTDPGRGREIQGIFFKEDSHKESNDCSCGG
Sequence of Grb2 SH2 (P62993 whole entry, looked up, the tested form may be a part): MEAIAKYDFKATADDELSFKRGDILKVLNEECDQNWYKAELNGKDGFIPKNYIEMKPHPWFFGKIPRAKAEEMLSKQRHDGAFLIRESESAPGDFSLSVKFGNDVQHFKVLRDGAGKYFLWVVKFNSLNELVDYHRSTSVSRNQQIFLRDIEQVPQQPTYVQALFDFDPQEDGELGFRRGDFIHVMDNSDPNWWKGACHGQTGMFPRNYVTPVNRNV
Sequence of Jak2 (O60674 whole entry, looked up): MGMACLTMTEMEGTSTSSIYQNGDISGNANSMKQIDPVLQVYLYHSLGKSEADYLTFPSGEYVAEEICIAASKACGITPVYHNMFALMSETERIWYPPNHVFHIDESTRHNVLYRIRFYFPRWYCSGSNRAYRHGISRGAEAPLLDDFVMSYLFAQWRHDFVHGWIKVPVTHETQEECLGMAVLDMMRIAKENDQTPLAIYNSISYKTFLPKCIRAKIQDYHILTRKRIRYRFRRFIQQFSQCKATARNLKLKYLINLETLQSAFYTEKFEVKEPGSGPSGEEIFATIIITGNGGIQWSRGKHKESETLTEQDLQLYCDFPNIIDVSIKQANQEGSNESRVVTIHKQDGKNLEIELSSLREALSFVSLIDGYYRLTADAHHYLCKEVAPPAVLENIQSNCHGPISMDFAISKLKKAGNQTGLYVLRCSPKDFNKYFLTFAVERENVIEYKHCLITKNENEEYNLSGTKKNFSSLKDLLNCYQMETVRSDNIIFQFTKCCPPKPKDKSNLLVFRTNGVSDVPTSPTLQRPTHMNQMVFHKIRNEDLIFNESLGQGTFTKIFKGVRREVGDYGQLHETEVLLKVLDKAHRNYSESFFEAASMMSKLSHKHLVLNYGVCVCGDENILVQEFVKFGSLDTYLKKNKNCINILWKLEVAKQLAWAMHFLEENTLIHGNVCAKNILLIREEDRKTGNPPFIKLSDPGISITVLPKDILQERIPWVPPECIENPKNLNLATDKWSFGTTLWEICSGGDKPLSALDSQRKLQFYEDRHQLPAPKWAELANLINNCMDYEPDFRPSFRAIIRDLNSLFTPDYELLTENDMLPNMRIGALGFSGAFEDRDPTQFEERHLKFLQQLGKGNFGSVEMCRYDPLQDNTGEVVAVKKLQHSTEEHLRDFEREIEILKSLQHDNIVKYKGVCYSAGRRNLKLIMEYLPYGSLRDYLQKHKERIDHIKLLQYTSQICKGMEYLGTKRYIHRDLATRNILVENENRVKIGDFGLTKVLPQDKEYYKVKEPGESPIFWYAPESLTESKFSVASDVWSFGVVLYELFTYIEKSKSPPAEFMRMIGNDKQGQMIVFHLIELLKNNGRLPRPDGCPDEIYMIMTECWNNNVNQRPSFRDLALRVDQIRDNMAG
Sequence of Hck (P08631 whole entry, looked up): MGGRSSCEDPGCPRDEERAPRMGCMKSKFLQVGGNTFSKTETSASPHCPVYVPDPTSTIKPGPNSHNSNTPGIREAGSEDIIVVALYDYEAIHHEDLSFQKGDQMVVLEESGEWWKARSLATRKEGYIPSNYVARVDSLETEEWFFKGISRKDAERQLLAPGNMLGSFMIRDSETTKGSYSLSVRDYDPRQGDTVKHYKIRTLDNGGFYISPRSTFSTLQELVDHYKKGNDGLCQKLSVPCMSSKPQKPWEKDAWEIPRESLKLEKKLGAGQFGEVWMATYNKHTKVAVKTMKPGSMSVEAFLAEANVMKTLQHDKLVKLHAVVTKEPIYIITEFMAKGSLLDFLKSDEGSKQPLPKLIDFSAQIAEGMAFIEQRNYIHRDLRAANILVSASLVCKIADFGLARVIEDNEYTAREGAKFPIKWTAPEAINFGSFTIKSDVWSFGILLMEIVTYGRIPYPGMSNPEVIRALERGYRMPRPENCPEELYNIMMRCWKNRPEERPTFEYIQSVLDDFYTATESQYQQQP
Sequence of FGFR3 (P22607 whole entry, looked up): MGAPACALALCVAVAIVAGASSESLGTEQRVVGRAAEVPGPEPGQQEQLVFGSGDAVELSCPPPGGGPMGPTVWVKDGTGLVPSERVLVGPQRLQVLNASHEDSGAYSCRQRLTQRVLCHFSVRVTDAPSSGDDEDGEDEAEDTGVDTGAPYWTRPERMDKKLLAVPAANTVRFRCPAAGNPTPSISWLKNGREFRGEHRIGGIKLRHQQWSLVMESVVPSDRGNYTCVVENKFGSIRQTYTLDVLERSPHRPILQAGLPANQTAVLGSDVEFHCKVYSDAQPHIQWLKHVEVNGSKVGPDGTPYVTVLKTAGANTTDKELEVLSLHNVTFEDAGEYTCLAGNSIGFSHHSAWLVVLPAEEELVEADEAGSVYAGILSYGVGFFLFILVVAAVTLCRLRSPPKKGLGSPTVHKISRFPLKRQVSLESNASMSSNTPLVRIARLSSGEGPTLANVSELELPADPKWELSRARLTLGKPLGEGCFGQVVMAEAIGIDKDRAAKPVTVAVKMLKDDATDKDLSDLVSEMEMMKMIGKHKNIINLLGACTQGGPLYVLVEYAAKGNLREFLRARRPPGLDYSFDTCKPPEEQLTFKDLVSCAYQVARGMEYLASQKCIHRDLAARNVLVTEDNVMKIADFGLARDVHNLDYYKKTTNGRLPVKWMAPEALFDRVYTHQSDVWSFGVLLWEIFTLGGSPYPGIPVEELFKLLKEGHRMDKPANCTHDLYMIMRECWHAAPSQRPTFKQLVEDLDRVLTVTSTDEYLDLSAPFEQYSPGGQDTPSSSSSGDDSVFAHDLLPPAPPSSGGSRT
Sequence of EPHB1 (P54762 whole entry, looked up): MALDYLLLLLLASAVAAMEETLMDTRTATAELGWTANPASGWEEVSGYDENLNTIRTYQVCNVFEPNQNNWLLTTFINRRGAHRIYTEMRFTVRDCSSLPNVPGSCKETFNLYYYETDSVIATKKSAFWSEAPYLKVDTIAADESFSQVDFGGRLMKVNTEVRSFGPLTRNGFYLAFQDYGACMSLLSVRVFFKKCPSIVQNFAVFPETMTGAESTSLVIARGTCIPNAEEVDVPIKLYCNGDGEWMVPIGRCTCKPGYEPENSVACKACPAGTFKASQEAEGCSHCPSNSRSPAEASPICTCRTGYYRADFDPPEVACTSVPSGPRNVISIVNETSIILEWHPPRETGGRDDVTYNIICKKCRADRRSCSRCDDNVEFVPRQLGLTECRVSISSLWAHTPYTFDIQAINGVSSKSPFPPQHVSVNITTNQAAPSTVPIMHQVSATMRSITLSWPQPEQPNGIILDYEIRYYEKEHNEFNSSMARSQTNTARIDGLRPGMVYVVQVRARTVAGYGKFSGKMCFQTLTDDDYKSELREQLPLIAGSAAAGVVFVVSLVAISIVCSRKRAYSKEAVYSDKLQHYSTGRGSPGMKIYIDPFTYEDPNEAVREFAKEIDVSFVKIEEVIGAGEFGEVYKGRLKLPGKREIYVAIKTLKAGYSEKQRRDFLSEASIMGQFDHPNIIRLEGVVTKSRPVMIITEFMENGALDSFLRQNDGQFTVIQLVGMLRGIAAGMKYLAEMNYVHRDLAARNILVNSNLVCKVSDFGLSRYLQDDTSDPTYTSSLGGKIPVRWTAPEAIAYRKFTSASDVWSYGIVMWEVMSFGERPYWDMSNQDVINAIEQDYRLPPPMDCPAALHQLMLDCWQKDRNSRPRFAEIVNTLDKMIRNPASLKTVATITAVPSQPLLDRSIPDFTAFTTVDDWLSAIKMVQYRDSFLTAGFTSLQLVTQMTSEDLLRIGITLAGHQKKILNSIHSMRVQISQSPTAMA

As to PLQDVYKIGGI [EEF1A2_Y254], the phosphorylation enrichment with EPHB1 stood at 2.02; in the data set with AncSZ it was 1.01; in the data set on c-Src, 4.34; in the data set with EPHB2 it was 0.572; with Hck, 1.04; in the data set with Fer (mouse), 0.679. Also, the phosphorylation enrichment with MERTK worked out at 0.522; in the data set with FGFR1 it was 0.505; with c-Abl (mouse) it was 1.92; in the data set with Fes, 0.981; in the data set with FGFR3, 0.793; with Jak2 it was 1. Moreover, the phosphorylation enrichment with Fyn turned out to be 2.3. In addition, the SH2 binding enrichment with c-Src SH2 turned out to be 0.429; with SHP2-C SH2, 0.574; with Grb2 SH2, 1.03.
In the case of SEDSEYYRAFE [CASQ2_Y178_K180R], the phosphorylation enrichment came out at 0.67 with EPHB1; 2.7 in the data set with AncSZ; 0.824 in the data set on c-Src; 0.696 with EPHB2; 0.685 with Hck; 0.515 with Fer (mouse). Besides, the phosphorylation enrichment with MERTK was 0.523; in the data set with FGFR1, 0.869; with c-Abl (mouse), 0.89; in the data set with Fes, 1.29; with FGFR3, 1.24; in the data set with Jak2, 1.29. For the same sequence, the phosphorylation enrichment with Fyn is 0.823. The SH2 binding enrichment was 0.47 in the data set with c-Src SH2, 0.67 with SHP2-C SH2 and 0.901 with Grb2 SH2.
Take YNNYGYGNDGF [HNRNPH3_Y161]: the phosphorylation enrichment worked out at 3.61 with EPHB1; 0.789 in the data set with AncSZ; 0.505 in the data set with c-Src; 6.45 with EPHB2; 0.455 with Hck; 0.566 in the data set on Fer (mouse). Moreover, the phosphorylation enrichment worked out at 0.759 with MERTK; 0.766 in the data set with FGFR1; 0.547 in the data set on c-Abl (mouse); 0.924 in the data set with Fes; 0.766 with FGFR3; 0.673 with Jak2. In addition, the phosphorylation enrichment with Fyn was 0.577. In addition, the SH2 binding enrichment with c-Src SH2 amounted to 1.85; in the data set with SHP2-C SH2, 0.591; in the data set with Grb2 SH2 it was 2.52.
As for KRYRIYHLAIS [BRCA2_Y3009_T3013I], the phosphorylation enrichment with EPHB1 amounted to 0.37; with AncSZ, 0.535; in the data set with c-Src it was 0.459; with EPHB2, 0.358; in the data set with Hck it was 0.446; in the data set with Fer (mouse), 0.406. Besides, the phosphorylation enrichment in the data set with MERTK is 0.62; with FGFR1, 0.599; with c-Abl (mouse) it was 0.449; with Fes, 0.68; with FGFR3 it was 0.464; with Jak2, 0.604. In the data set with Fyn, the phosphorylation enrichment came out at 0.343. For the same sequence, the results for the SH2 binding enrichment in the data set with c-Src SH2, with SHP2-C SH2 and with Grb2 SH2 were 1.51, 1.03 and 1.13, respectively.
Regarding LEFGDCHPLKP [VPS35L_Y32_Y32C], the phosphorylation enrichment in the data set with EPHB1 was 0.863; in the data set on AncSZ it was 1.63; in the data set with c-Src, 0.602; with EPHB2, 0.802; with Hck, 0.777; in the data set with Fer (mouse) it was 1.24. Also, the phosphorylation enrichment with MERTK stood at 0.472; with FGFR1 it was 0.763; in the data set on c-Abl (mouse), 0.884; with Fes, 1.97; with FGFR3, 1.52; in the data set with Jak2, 1.16. Further, the phosphorylation enrichment in the data set with Fyn was 0.841. The SH2 binding enrichment in the data set with c-Src SH2 came out at 0.529; with SHP2-C SH2, 0.613; in the data set with Grb2 SH2, 0.963.
As to FFCRWYRNRKS [EREG_Y144_YF], the phosphorylation enrichment in the data set with EPHB1 turned out to be 0.421; with AncSZ, 0.442; in the data set with c-Src, 0.51; in the data set with EPHB2, 0.514; with Hck, 0.326; with Fer (mouse) it was 0.312. Moreover, the phosphorylation enrichment with MERTK is 0.433; in the data set with FGFR1, 0.463; in the data set on c-Abl (mouse) it was 0.421; with Fes, 0.453; in the data set with FGFR3, 0.409; with Jak2, 0.433. Moreover, in the data set with Fyn, the phosphorylation enrichment worked out at 0.563. Further, the SH2 binding enrichment with c-Src SH2 came to 0.516; in the data set with SHP2-C SH2 it was 0.858; with Grb2 SH2, 0.705.
As to IITDYYVDMKF [MPP4_Y567_V562I], the phosphorylation enrichment was determined as 3.56 in the data set with EPHB1; 1.87 in the data set with AncSZ; 0.98 with c-Src; 2.11 with EPHB2; 1.17 with Hck; 1.38 in the data set on Fer (mouse). For the same sequence, the phosphorylation enrichment with MERTK came out at 1.22; with FGFR1, 7.4; in the data set with c-Abl (mouse), 0.856; in the data set with Fes, 1.46; with FGFR3, 5.13; in the data set with Jak2, 2.52. Besides, the phosphorylation enrichment with Fyn was 1.01. Further, the SH2 binding enrichment is 1.11 with c-Src SH2, 0.803 in the data set with SHP2-C SH2 and 0.8 with Grb2 SH2.
For VFSATYHPDHW [EFCAB12_Y544_P541S_YF], the phosphorylation enrichment with EPHB1 was 0.518; with AncSZ, 0.739; in the data set with c-Src, 0.761; with EPHB2 it was 0.519; in the data set with Hck it was 0.466; in the data set on Fer (mouse) it was 0.55. The phosphorylation enrichment with MERTK was determined as 0.492; in the data set with FGFR1 it was 0.548; in the data set with c-Abl (mouse) it was 0.676; in the data set with Fes, 0.785; with FGFR3 it was 0.614; with Jak2, 0.807. Further, the phosphorylation enrichment in the data set with Fyn worked out at 0.472. In addition, the SH2 binding enrichment with c-Src SH2 came out at 0.565; in the data set with SHP2-C SH2 it was 0.699; in the data set with Grb2 SH2, 0.834.
